T1: FcγRIIb extracellular domain with C-terminal His tag (human, UniProt P31994 43-217)
T1 construct: extracellular domain; Expressed in FreeStyle293 cells; analyte in the Biacore assay; also called FcgRIIb; 2b; not shown: His tag at the C terminus
T1 sequence (looked up): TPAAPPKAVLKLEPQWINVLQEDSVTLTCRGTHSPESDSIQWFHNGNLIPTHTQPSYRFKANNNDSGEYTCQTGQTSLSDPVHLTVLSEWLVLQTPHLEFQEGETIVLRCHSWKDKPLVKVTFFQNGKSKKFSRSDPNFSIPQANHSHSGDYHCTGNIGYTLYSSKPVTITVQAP

T2: FcγRIIb (human, UniProt P31994 43-217)
T2 construct: extracellular domain; also called FcgRIIb; 2b; not shown: His tag at the C terminus
T2 sequence (looked up): T1 sequence (looked up)

B1: GpH7-A5/GpH7-B3 variant V266_18N/GpL16-k0 (antibody, human IgG1, kappa)
heavy 1: not shown
heavy 2: not shown
light: DIVMTQSPLSLPVTPGEPASISCQASESLVHSNRNTYLHWYLQKPGQSPQLLIYKVSNRFSGVPDRFSGSGSGTDFTLKISRVEAEDVGVYYCSQNTHVPPTFGQGTKVEIERTVAAPSVFIFPPSDEQLKSGTASVVCLLNNFYPREAKVQWKVDNALQSGNSQESVTEQDSKDSTYSLSSTLTLSKADYEKHKVYACEVTHQGLSSPVTKSFNRGEC
notes: He Ab: mutation only in the GpH7-B3 H chain; EU numbering; also called He Ab
B2: GpH7-A5/GpH7-B3 variant S267_12R/GpL16-k0 (antibody, human IgG1, kappa)
heavy 1: not shown
heavy 2: not shown
light: B1 light
notes: as for B1
B3: GpH7-A5/GpH7-B3 variant S267_18N/GpL16-k0 (antibody, human IgG1, kappa)
heavy 1: not shown
heavy 2: not shown
light: B1 light
notes: as for B1
B4: GpH7-A5/GpH7-B3 variant E269_01G/GpL16-k0 (He Ab) (antibody, human IgG1, kappa)
heavy 1: not shown
heavy 2: not shown
light: B1 light
notes: Heterodimerized anti-glypican-3 IgG1; the mutation stands in the GpH7-B3 chain only
B5: GpH7-A5/GpH7-B3 variant E269_11K/GpL16-k0 (He Ab) (antibody, human IgG1, kappa)
heavy 1: not shown
heavy 2: not shown
light: B1 light
notes: as for B4
B6: GpH7-A5/GpH7-B3 variant E269_14T/GpL16-k0 (He Ab) (antibody, human IgG1, kappa)
heavy 1: not shown
heavy 2: not shown
light: B1 light
notes: as for B4
B7: GpH7-A5/GpH7-B3 variant E269_07I/GpL16-k0 (He Ab) (antibody, human IgG1, kappa)
heavy 1: not shown
heavy 2: not shown
light: B1 light
notes: as for B4
B8: GpH7-A5/GpH7-B3 variant E269_12R/GpL16-k0 (He Ab) (antibody, human IgG1, kappa)
heavy 1: not shown
heavy 2: not shown
light: B1 light
notes: as for B4
B9: GpH7-A5/GpH7-B3 variant E269_16H/GpL16-k0 (He Ab) (antibody, human IgG1, kappa)
heavy 1: not shown
heavy 2: not shown
light: B1 light
notes: as for B4
B10: GpH7-A5/GpH7-B3 variant E269_18N/GpL16-k0 (He Ab) (antibody, human IgG1, kappa)
heavy 1: not shown
heavy 2: not shown
light: B1 light
notes: as for B4
B11: GpH7-A5/GpH7-B3 variant E269_02A/GpL16-k0 (He Ab) (antibody, human IgG1, kappa)
heavy 1: not shown
heavy 2: not shown
light: B1 light
notes: as for B4
B12: GpH7-A5/GpH7-B3 variant H268_11K/GpL16-k0 (He Ab) (antibody, human IgG1, kappa)
heavy 1: not shown
heavy 2: not shown
light: B1 light
notes: as for B4
B13: GpH7-A5/GpH7-B3 variant H268_08L/GpL16-k0 (He Ab) (antibody, human IgG1, kappa)
heavy 1: not shown
heavy 2: not shown
light: B1 light
notes: as for B4
B14: GpH7-A5/GpH7-B3 variant E269_13S/GpL16-k0 (He Ab) (antibody, human IgG1, kappa)
heavy 1: not shown
heavy 2: not shown
light: B1 light
notes: as for B4
B15: GpH7-A5/GpH7-B3 variant E269_05P/GpL16-k0 (He Ab) (antibody, human IgG1, kappa)
heavy 1: not shown
heavy 2: not shown
light: B1 light
notes: as for B4
B16: GpH7-A5/GpH7-B3 variant H268_07I/GpL16-k0 (He Ab) (antibody, human IgG1, kappa)
heavy 1: not shown
heavy 2: not shown
light: B1 light
notes: as for B4
B17: GpH7-A5/GpH7-B3 variant E269_03V/GpL16-k0 (He Ab) (antibody, human IgG1, kappa)
heavy 1: not shown
heavy 2: not shown
light: B1 light
notes: as for B4
B18: GpH7-A5/GpH7-B3 variant E269_04F/GpL16-k0 (He Ab) (antibody, human IgG1, kappa)
heavy 1: not shown
heavy 2: not shown
light: B1 light
notes: as for B4
B19: GpH7-A5/GpH7-B3 variant E269_06M/GpL16-k0 (He Ab) (antibody, human IgG1, kappa)
heavy 1: not shown
heavy 2: not shown
light: B1 light
notes: as for B4
B20: GpH7-A5/GpH7-B3 variant E269_08L/GpL16-k0 (He Ab) (antibody, human IgG1, kappa)
heavy 1: not shown
heavy 2: not shown
light: B1 light
notes: as for B4
B21: GpH7-A5/GpH7-B3 variant E269_15Y/GpL16-k0 (He Ab) (antibody, human IgG1, kappa)
heavy 1: not shown
heavy 2: not shown
light: B1 light
notes: as for B4

Molecular target: T3, FcγRIa (human, UniProt P12314 16-292)
T3 construct: extracellular domain; also called FcgRI; 1a; not shown: His tag at the C terminus
T3 sequence (P12314 16-292): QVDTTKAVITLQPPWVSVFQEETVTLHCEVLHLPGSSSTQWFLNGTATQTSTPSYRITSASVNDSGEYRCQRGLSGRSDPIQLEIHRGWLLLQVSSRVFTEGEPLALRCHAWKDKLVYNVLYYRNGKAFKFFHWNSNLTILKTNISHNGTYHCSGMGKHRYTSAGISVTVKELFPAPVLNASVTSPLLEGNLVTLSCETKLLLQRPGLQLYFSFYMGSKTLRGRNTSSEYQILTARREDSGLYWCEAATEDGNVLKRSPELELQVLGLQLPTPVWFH
Assay: SPR; He/Con_1a divided by He/Con_2b (FcγRIIb as reference)

| Ia/IIb He_1a/2b [ratio] | Binder |
| --- | --- |
| 1.43 | B1 |
| 8.21 | B2 |
| 2.15 | B3 |

Molecular target: T1, FcγRIIb extracellular domain with …
Assay: SPR (Biacore), antibody captured on antigen-peptide chip, FcγR as analyte; relative binding

| He/Con_2b | Binder |
| --- | --- |
| 51.5 % of GpH7-A5/GpH7-B3/GpL16-k0 (=100) | B4 |
| 17.8 % of GpH7-A5/GpH7-B3/GpL16-k0 (=100) | B5 |
| 50.6 % of GpH7-A5/GpH7-B3/GpL16-k0 (=100) | B6 |
| 43.9 % of GpH7-A5/GpH7-B3/GpL16-k0 (=100) | B7 |
| 25.2 % of GpH7-A5/GpH7-B3/GpL16-k0 (=100) | B8 |
| 38.5 % of GpH7-A5/GpH7-B3/GpL16-k0 (=100) | B9 |
| 44.8 % of GpH7-A5/GpH7-B3/GpL16-k0 (=100) | B10 |
| 49.9 % of GpH7-A5/GpH7-B3/GpL16-k0 (=100) | B11 |
| 83 % of GpH7-A5/GpH7-B3/GpL16-k0 (=100) | B12 |
| 67.8 % of GpH7-A5/GpH7-B3/GpL16-k0 (=100) | B13 |
| 47.8 % of GpH7-A5/GpH7-B3/GpL16-k0 (=100) | B14 |
| 52.6 % of GpH7-A5/GpH7-B3/GpL16-k0 (=100) | B15 |
| 88.9 % of GpH7-A5/GpH7-B3/GpL16-k0 (=100) | B16 |
| 45.1 % of GpH7-A5/GpH7-B3/GpL16-k0 (=100) | B17 |
| 45 % of GpH7-A5/GpH7-B3/GpL16-k0 (=100) | B18 |
| 46.7 % of GpH7-A5/GpH7-B3/GpL16-k0 (=100) | B19 |
| 42.9 % of GpH7-A5/GpH7-B3/GpL16-k0 (=100) | B20 |
| 44.7 % of GpH7-A5/GpH7-B3/GpL16-k0 (=100) | B21 |

Molecular target: T4, FcγRIa extracellular domain with C-terminal His tag (human, UniProt P12314 16-292)
T4 construct: extracellular domain; Expressed in FreeStyle293 cells; analyte in the Biacore assay; also called FcgRI; 1a; not shown: His tag at the C terminus
T4 sequence (P12314 16-292): as above
Assay: as above

| He/Con_1a | Binder |
| --- | --- |
| 104 % of GpH7-A5/GpH7-B3/GpL16-k0 (=100) | B4 |
| 95.2 % of GpH7-A5/GpH7-B3/GpL16-k0 (=100) | B5 |
| 106 % of GpH7-A5/GpH7-B3/GpL16-k0 (=100) | B6 |
| 103 % of GpH7-A5/GpH7-B3/GpL16-k0 (=100) | B7 |
| 97.1 % of GpH7-A5/GpH7-B3/GpL16-k0 (=100) | B8 |
| 106 % of GpH7-A5/GpH7-B3/GpL16-k0 (=100) | B9 |
| 102 % of GpH7-A5/GpH7-B3/GpL16-k0 (=100) | B10 |
| 104 % of GpH7-A5/GpH7-B3/GpL16-k0 (=100) | B11 |
| 106 % of GpH7-A5/GpH7-B3/GpL16-k0 (=100) | B12 |
| 107 % of GpH7-A5/GpH7-B3/GpL16-k0 (=100) | B13 |
| 103 % of GpH7-A5/GpH7-B3/GpL16-k0 (=100) | B14 |
| 102 % of GpH7-A5/GpH7-B3/GpL16-k0 (=100) | B15 |
| 108 % of GpH7-A5/GpH7-B3/GpL16-k0 (=100) | B16 |
| 103 % of GpH7-A5/GpH7-B3/GpL16-k0 (=100) | B17 |
| 103 % of GpH7-A5/GpH7-B3/GpL16-k0 (=100) | B18 |
| 104 % of GpH7-A5/GpH7-B3/GpL16-k0 (=100) | B19 |
| 104 % of GpH7-A5/GpH7-B3/GpL16-k0 (=100) | B20 |
| 106 % of GpH7-A5/GpH7-B3/GpL16-k0 (=100) | B21 |

Molecular target: T2, FcγRIIb
Assay: SPR (Biacore), captured antibody, soluble FcγR; relative to GpH7-A5/GpH7-B3/GpL16-k0

| He/Con_2b | Binder |
| --- | --- |
| 69.7 relative, HeCon Ab = 100 | B1 |
| 11.3 relative, HeCon Ab = 100 | B2 |
| 47.7 relative, HeCon Ab = 100 | B3 |

Molecular target: T3, FcγRIa
Assay: as above

| He/Con_1a | Binder |
| --- | --- |
| 99.5 relative, HeCon Ab = 100 | B1 |
| 92.7 relative, HeCon Ab = 100 | B2 |
| 102 relative, HeCon Ab = 100 | B3 |
